Assay results as given in patent publication US20140120109A1 (Regeneron, published 2014).
Residue numbers refer to the chain shown, from its start.

T1: human TL1A, soluble, CHO-expressed, residues 72-251 of SEQ ID NO:244 with N-terminal His6-tag (human, UniProt O95150 72-251)
T1 construct: also called hTL1A; hTL1A (CHO)
T1 sequence: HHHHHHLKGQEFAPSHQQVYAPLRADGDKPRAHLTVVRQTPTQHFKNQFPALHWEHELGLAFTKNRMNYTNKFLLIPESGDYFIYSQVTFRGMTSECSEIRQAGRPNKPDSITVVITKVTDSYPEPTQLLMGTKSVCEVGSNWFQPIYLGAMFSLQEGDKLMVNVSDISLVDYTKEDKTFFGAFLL

T2: cynomolgus monkey TL1A, soluble, E. coli-expressed, residues 72-251 of SEQ ID NO:248 (cynomolgus monkey (Macaca fascicularis), UniProt O95150 72-251 (human entry))
T2 chain: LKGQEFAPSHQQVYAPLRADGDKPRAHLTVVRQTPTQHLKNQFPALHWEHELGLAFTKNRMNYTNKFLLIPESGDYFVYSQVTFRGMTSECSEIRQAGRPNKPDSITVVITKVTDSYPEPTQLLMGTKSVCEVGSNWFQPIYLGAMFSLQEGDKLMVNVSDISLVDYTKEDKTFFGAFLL

T3: cynomolgus monkey TL1A, soluble, CHO-expressed, residues 72-251 of SEQ ID NO:248 with N-terminal His6-tag (cynomolgus monkey (Macaca fascicularis), UniProt O95150 72-251 (human entry))
T3 chain: T1 sequence with F45L, I84V

T4: human TL1A, soluble, E. coli-expressed, residues 72-251 of SEQ ID NO:244 (human, UniProt O95150 72-251)
T4 sequence: T2 chain with L39F, V78I

B1: H4H1745P (antibody, human IgG4 S228P, V domains shown)
VH: EVQLVESGGGLVQPGGSLRLSCAASGFTFSSYAMTWVRQAPGKGLEWVSGVSGRGGSTYYADSVKGRFTISRDNSKNTLYLQMNSLRAEDTAVYYCAYWDISSFDYWGQGTLVTVSS
VL: DIQLTQSPSFLSASVGDRVTITCWASQGISTYLAWYQQKPGKTPKLLIYAASTLQSGVPSRFSGSGSGTDFTLTISSLQPEDFATYYCQQFNSYPLTFGGGTKVEIK
B2: H4H1725P (antibody, human IgG4 S228P, V domains shown)
VH: QVQLVQSGAEVKKPGASVKVSCKASGYTFTGYYMHWVRQAPGQGLEWMGWIKPKSGGTNYVQKFQGRVTMTRDTSINTAYMELNNLKSDDTAVYYCATGGSQDASDFWGQGTMVTVSS
VL: DIQMTQSPSSVSASVGGRVTITCRASQDISIWLAWYQQKPGKAPNLLIYAASSLQSGVPSRFSGSGSGTDFTLTISSLQPEDFATYYCQQADSFPLTFGGGTKVEIK
B3: H4H1742P (antibody, human IgG4 S228P, V domains shown)
VH: EVQLVESGGGLVQPGGSLRLSCAASGFTFSNYVMNWVRQAPGKGLEWVSVISGSGGSTHYADSVKGRFTISRDNSKDALYLQMNSLRAEDTAVYYCAKGPLEAYYYYNGMDVWGQGTTVTVSS
VL: DIQLTQSPSFLSASVGDRVTITCWASQAISSYLAWYQHKPGRAPKLLIYSTSTLQSGVPSRFSGSGSGTEFTLTISSLQPEDFATYYCQQLNSYPTFGQGTKLEIK
B4: H4H1719P (antibody, human IgG4 S228P, V domains shown)
VH: EVQLVESGGGLVQPGRSLRLSCVASGFTFQDYAMHWVRQAPGKGLEWVSGINWISDDMGYADSVMGRFTISRDNAKNSLYLQMDSLRAEDTALYYCAKDKGLRFLDYVMDVWGQGTTVTVSA
VL: DIVMTQSPLSLPVTPGEPASISCRSTQSLLHRNGHNYLHWYLHKPGQSPQLLIHLGSNRASGVPDRFSGSGSGTDFTLKISRVEAEDVGVYYCMQALQTPYTFGQGTKLEIK
B5: H4H1738P (antibody, human IgG4 S228P, V domains shown)
VH: EVQLVESGGALVKPGGSLRLSCAVSGFTFINDWMNWVRQAPGKGLEWVGRIKSTTDGGTTDDAAPVKGRFTISRDDSKNTLYLQMNSLKTEDTAVYYCTRDRNRQRNYFYDGMDVWGQGTTVTVSA
VL: B4 VL with L9V, T26S, S28R, R32N, H35N, H39D, H43Q, H54Y, I80V

What follows are binders tested against T1, human TL1A, soluble, CHO-expressed, … (assay: ELISA, blocks hTL1A (10 pM) binding hDcR3-Fc).
Outline: (§1)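 Competition sandwich ELISA: biotinylated CHO-expressed ligand (human TL1A, FHM Q167R variant, or cynomolgus TL1A) at fixed concentration preincubated with titrated antibody 1 h at 25 °C, then 1 h on hDR3-Fc or hDcR3-Fc coated wells. Bound ligand detected by streptavidin-HRP/TMB at 450 nm; sigmoidal dose-response fit.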

Binder	IC50
B1	0.058 nM
B2	0.068 nM
B3	0.181 nM
B4	0.044 nM
B5	0.122 nM

Each binder was assayed against T1, human TL1A, soluble, CHO-expressed, … (assay: ELISA, blocks hTL1A (150 pM) binding hDR3-Fc).
Outline: as §1

Binder	IC50
B1	0.018 nM
B2	0.015 nM
B3	0.064 nM
B4	0.022 nM
B5	0.069 nM

Target: T2, cynomolgus monkey TL1A, soluble, E. …
Assay: cell-based or functional assay

Binder	IC50, NFkB-luciferase reporter
B1	0.03 nM
B2	0.02 nM
B3	0.07 nM
B4	0.02 nM
B5	0.07 nM

Target: T3, cynomolgus monkey TL1A, soluble, …
Assay: cell-based or functional assay

Binder	IC50, NFkB-luciferase reporter
B1	0.05 nM
B2	0.01 nM
B3	0.26 nM
B4	0.01 nM
B5	0.39 nM

Each binder was assayed against T1, human TL1A, soluble, CHO-expressed, … (assay: cell-based or functional assay).

Binder	IC50, NFkB-luciferase reporter
B1	0.09 nM
B2	0.05 nM
B3	0.31 nM
B4	0.06 nM
B5	0.39 nM

The binders below were run against T4, human TL1A, soluble, E. coli-expressed, … (assay: cell-based or functional assay).

Binder	IC50, NFkB-luciferase reporter
B1	0.06 nM
B2	0.02 nM
B3	0.19 nM
B4	0.02 nM
B5	0.16 nM

Target: T1, human TL1A, soluble, CHO-expressed, …
Assay: cell-based or functional assay
Remark: another data set of the same source

Binder	Average % Blocking IFN-g, 3 ug/ml mAb
B1	91%
B2	94%
B3	83%
B4	78%
B5	81%

Target: T3, cynomolgus monkey TL1A, soluble, …
Assay: ELISA, blocks MfTL1A (50 pM) binding hDcR3-Fc
Outline: as §1

Binder	IC50
B1	0.118 nM
B2	0.145 nM
B3	0.127 nM
B4	0.061 nM
B5	0.068 nM

Target: T3, cynomolgus monkey TL1A, soluble, …
Assay: ELISA, blocks MfTL1A (500 pM) binding hDR3-Fc
Outline: as §1

Binder	IC50
B1	0.05 nM
B2	0.016 nM
B3	0.24 nM
B4	0.046 nM
B5	0.117 nM
